According to patent publication US6458552B1, “Metalloprotease peptide substrates and methods” (Ortho-McNeil Pharmaceutical, Inc., priority 2000, dated 2002):

T1: ADAM8 (Homo sapiens, UniProt P78325)
T1 construct: FLAG (C); made in house; host or cells: Sf9 insect cells (baculovirus, pFastBac1)
T1 sequence (P78325 200-400 limits assumed): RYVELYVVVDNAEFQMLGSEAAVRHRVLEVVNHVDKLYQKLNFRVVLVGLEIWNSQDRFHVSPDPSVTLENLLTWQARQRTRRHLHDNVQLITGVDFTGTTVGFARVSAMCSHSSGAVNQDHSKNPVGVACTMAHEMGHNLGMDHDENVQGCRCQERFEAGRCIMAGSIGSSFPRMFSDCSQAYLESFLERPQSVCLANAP

T2: ADAM15 (Homo sapiens, UniProt Q13444)
T2 construct: FLAG (C); made in house; host or cells: Sf9 insect cells (baculovirus, pFastBac1)
T2 sequence (Q13444 213-414 limits assumed): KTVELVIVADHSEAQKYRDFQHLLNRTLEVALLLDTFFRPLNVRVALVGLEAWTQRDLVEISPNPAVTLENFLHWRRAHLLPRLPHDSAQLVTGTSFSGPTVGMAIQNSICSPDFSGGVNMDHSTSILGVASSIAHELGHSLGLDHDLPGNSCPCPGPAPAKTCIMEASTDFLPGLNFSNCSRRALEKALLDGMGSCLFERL

T3: MDC-L (Homo sapiens, UniProt Q9UKQ2)
T3 construct: FLAG (C); made in house; host or cells: Sf9 insect cells (baculovirus, pFastBac1)
T3 sequence (Q9UKQ2 204-399 limits assumed): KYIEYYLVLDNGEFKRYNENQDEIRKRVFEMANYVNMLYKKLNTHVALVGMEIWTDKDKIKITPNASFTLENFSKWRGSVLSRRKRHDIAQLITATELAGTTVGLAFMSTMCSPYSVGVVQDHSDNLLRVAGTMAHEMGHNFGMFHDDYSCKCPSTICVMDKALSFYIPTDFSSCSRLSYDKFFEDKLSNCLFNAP

T4: CatE1 FRET peptide X-KPAKFFRL-Z (not fully specified)
T4 chain: KPAKFFRL


Key:
ADAM8 [1] = target: T1, ADAM8; assay: FRET peptide substrate screening, ADAM8; assay type: biochemical; parameters: key: from one star (*) to five stars (*****) to indicate weaker to more potent substrates respectively; from one star (*) to five stars (*****) to indicate weaker to more potent substrates respectively; from one star (*) to five stars (*****) to indicate weaker to more potent substrates respectively; from one star (*) to five stars (*****) to indicate weaker to more potent substrates respectively; (—) = no detectable activity; settings: FRET peptide 20 uM, room temperature
Text: (§1) Forty nine different peptides were synthesized for testing protease activity. The peptides comprised (i) a collection of substrates for other proteases, as well as (ii) a number of sequences corresponding to membrane proximal cleavage sites of various proteins postulated to be released by metalloproteases (including those published by (Roghani et al., 1999) for ADAM9/MDC9). In order to use the principle of fluorescence resonance energy transfer, or FRET, for the assay, the peptides were labelled at the C-terminus with Dabcyl and at the N-terminus with Edans. Thus cleavage of the peptides can be monitored by the increase in Edans fluorescence at 460 nm (excitation 360 nm) as a result of the decrease in proximity of the Dabcyl quencher. The assay was performed by diluting the ADAM8, ADAM15, MDC-L, or ADAM17 (50 to 100 ng of protein, one to two picomoles) in assay buffer, 10 mM HEPES, pH 7.5, containing 0.001% Brij35. The reaction was initiated by the addition of peptide substrate to a final concentration of 20 uM. The assays were typically run for 20 to 60 minutes at room temperature and the slope of the kinetic increase in fluorescence was determined to calculate the rate of the reaction. If necessary, it was possible to stop the reaction at a certain time by the addition of 1/10th volume of 1M NaOAc (sodium acetate), pH 3.5.
(§2) This peptide was cleaved by all enzymes, and thus was chosen to represent a standard by which to compare the relative activity of the various enzymes for their potential to cleave the various peptide substrates.

ADAM15 = target: T2, ADAM15; assay: FRET peptide substrate screening, ADAM15; assay type: biochemical; parameters: key: from one star (*) to five stars (*****) to indicate weaker to more potent substrates respectively; from one star (*) to five stars (*****) to indicate weaker to more potent substrates respectively; from one star (*) to five stars (*****) to indicate weaker to more potent substrates respectively; from one star (*) to five stars (*****) to indicate weaker to more potent substrates respectively; (—) = no detectable activity; settings: FRET peptide 20 uM, room temperature
Text: as §1, §2

MDC-L = target: T3, MDC-L; assay: FRET peptide substrate screening, MDC-L; assay type: biochemical; parameters: key: from one star (*) to five stars (*****) to indicate weaker to more potent substrates respectively; from one star (*) to five stars (*****) to indicate weaker to more potent substrates respectively; from one star (*) to five stars (*****) to indicate weaker to more potent substrates respectively; from one star (*) to five stars (*****) to indicate weaker to more potent substrates respectively; (—) = no detectable activity; settings: FRET peptide 20 uM, room temperature
Text: as §1, §2

ADAM17 = target: T5, ADAM17 (Homo sapiens, UniProt P78536); assay: FRET peptide substrate screening, ADAM17; assay type: biochemical; parameters: key: from one star (*) to five stars (*****) to indicate weaker to more potent substrates respectively; from one star (*) to five stars (*****) to indicate weaker to more potent substrates respectively; from one star (*) to five stars (*****) to indicate weaker to more potent substrates respectively; from one star (*) to five stars (*****) to indicate weaker to more potent substrates respectively; (—) = no detectable activity; settings: FRET peptide 20 uM, room temperature
T5 construct: made in house
T5 sequence (P78536 215-824, species assumed): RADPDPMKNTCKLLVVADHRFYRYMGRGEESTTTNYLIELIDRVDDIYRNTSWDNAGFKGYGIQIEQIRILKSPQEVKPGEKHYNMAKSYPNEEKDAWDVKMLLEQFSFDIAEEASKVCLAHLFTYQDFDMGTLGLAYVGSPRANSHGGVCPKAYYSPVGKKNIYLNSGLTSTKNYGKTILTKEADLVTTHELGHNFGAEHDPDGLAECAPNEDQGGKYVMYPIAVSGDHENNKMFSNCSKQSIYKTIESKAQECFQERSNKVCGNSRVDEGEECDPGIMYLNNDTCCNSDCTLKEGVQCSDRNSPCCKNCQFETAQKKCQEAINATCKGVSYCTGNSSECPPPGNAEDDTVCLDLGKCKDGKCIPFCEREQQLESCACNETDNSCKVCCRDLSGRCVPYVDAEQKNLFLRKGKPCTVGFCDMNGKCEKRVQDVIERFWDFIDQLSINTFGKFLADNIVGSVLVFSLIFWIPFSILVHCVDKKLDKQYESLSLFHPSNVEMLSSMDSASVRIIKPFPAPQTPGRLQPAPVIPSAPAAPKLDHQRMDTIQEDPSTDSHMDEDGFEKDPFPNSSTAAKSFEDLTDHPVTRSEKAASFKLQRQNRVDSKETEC
Text: as §1, §2

ADAM8 [2] = target: T1, ADAM8; assay: Kinetic analysis of the affinity of ADAM8 for cleavage of 4 peptides; assay type: biochemical; settings: for K0.5 (substrate concentration at which the enzyme activity was 50% of the Vmax): ADAM8, 30 minutes at room temperature, by inspection of the fitted curves; for Cleavage site of ADAM8 within the peptide: carot marks the cleavage site
Method: To confirm the screening assay, ADAM8 was further analyzed for its catalytic rate for 4 different peptides. The assay was performed by diluting the ADAM8 in assay buffer, 10 mM HEPES, pH 7.5, containing 0.001% Brij35. […] The assay was run for 30 minutes at room temperature. […] The curves were fitted to the data with the program Grafit (Erithacus Software). […] The Vmax for each substrate was calculated by non-linear fitting of the data. The substrate concentration at which the enzyme activity was 50% of the Vmax (designated “K0.5”) was determined by inspection of the fitted curves. Table 2 also provides the cleavage site of ADAM8 within each peptide, as indicated by a carot within the peptide sequence.

[3] = target: T4, CatE1 FRET peptide X-KPAKFFRL-Z

Row | Molecule | Relative proteolytic activity ADAM8 (ADAM8 [1]) | Relative proteolytic activity ADAM15 (ADAM15) | Relative proteolytic activity MDC-L (MDC-L) | Relative proteolytic activity ADAM17 (ADAM17) | K0.5 (substrate concentration at which the enzyme activity was 50% of the Vmax) (ADAM8 [2]) | Cleavage site of ADAM8 within the peptide (ADAM8 [2]) | fluorometric proteolytic assay / FRET peptide zymography [3]
1 | X-RVRRALPS-Z ({Edans‑E}-RVRRALPS-{dabcyl‑K}) [AD8P2, FRET peptide substrate; X = Edans-E; Z = dabcyl-K] | *** | *** | *** | (—) |  |  | 
2 | X-PSAAQTARQHP-Z ({Edans‑E}-PSAAQTARQHP-{dabcyl‑K}) [TNFB2, FRET peptide substrate; X = Edans-E; Z = dabcyl-K] | *** | *** | *** | (—) |  |  | 
3 | X-PPVAASSLRN-Z ({Edans‑E}-PPVAASSLRN-{dabcyl‑K}) [KL1, FRET peptide substrate; X = Edans-E; Z = dabcyl-K] | *** | *** | *** | (—) |  |  | 
4 | X-RFAQAQQQLP-Z ({Edans‑E}-RFAQAQQQLP-{dabcyl‑K}) [CD27L, FRET peptide substrate; X = Edans-E; Z = dabcyl-K] | **** | **** | **** | (—) | 5 µM | XRFAQA^QQQLPZ | 
5 | X-KPAKFFRL-Z ({Edans‑E}-KPAKFFRL-{dabcyl‑K}) [CatEl, FRET peptide substrate; X = Edans-E; Z = dabcyl-K] | ***** | ***** | ***** | (—) | 2.5 µM | XKPAKF^FRLZ | 
6 | X-RTAAVFRP-Z ({Edans‑E}-RTAAVFRP-{dabcyl‑K}) [AD8P, FRET peptide substrate; X = Edans-E; Z = dabcyl-K] | * | * | * | ***** |  |  | 
7 | Z-RPLGLAR-X ({dabcyl‑K}-RPLGLAR-{Edans‑E}) [Mat, FRET peptide substrate; X = Edans-E; Z = dabcyl-K] | *** | *** | *** | *** |  |  | 
8 | X-KPAAFFRL-Z ({Edans‑E}-KPAAFFRL-{dabcyl‑K}) [CatE, FRET peptide substrate; X = Edans-E; Z = dabcyl-K] | ***** | ***** | ***** | (—) | 5 µM | XKPAAF^FRLZ | 
9 | X-PLAQAVRSSS-Z ({Edans‑E}-PLAQAVRSSS-{dabcyl‑K}) [TNFα, FRET peptide substrate; X = Edans-E; Z = dabcyl-K] | *** | *** | *** | *** | 5 µM | XPLAQAVRS^SSZ | 
10 | Z-RGVVNASSRLAK-X ({dabcyl‑K}-RGVVNASSRLAK-{Edans‑E}) [KAS-1, FRET peptide substrate; X = Edans-E; Z = dabcyl-K] | *** | *** | *** | (—) |  |  | 
11 | Z-LAQAVRSSSR-X ({dabcyl‑K}-LAQAVRSSSR-{Edans‑E}) [TNFα(−4 + 6), FRET peptide substrate; X = Edans-E; Z = dabcyl-K] | * | * | * | *** |  |  | 
12 | soluble recombinant human ADAM8 with pro- and protease domains and C-terminal FLAG epitope (inactive precursor form) (protein) IAPSRPWALMEQYEVVLPWRLPGPRVRRALPSHLGLHPERVSYVLGATGHNFTLHLRKNRDLLGSGYTETYTAANGSEVTEQPRGQDHCFYQGHVEGYPDSAASLSTCAGLRGFFQVGSDLHLIEPLDEGGEGGRHAVYQAEHLLQTAGTCGVSDDSLGSLLGPRTAAVFRPRPGDSLPSRETRYVELYVVVDNAEFQMLGSEAAVRHRVLEVVNHVDKLYQKLNFRVVLVGLEIWNSQDRFHVSPDPSVTLENLLTWQARQRTRRHLHDNVQLITGVDFTGTTVGFARVSAMCSHSSGAVNQDHSKNPVGVACTMAHEMGHNLGMDHDENVQGCRCQERFEAGRCIMAGSIGSSFPRMFSDCSQAYLESFLERPQSVCLANAP |  |  |  |  |  |  | showed no activity in the fluorometric proteolytic assay
